From paper PMC12143593, “Selective engineering of condensation properties of single-stranded DNA binding (SSB) protein via its intrinsically disordered linker region”

Key:
Settings in all cases: protein: recombinant; tags: N-terminal His6-TEV, removed; chain copies: 4; label: fluorescein
[1] = target: EcSSB WT (Escherichia coli, UniProt P0AGE0 1-178); assay: fluorescence polarization; n = 1.7; 20 mM Tris-acetate pH 8, 50 mM K-glutamate, 10 mM Mg-acetate, 25 C; 10 nM labeled oligo, SSB concentrations as tetramers
[2] = target: EcSSB W136D (Escherichia coli, UniProt P0AGE0 1-178, W136D); assay: as above
[3] = target: EcSSB d2G (Escherichia coli, UniProt P0AGE0 1-113+131-178, internal_change); assay: fluorescence polarization; n = 1.8; 20 mM Tris-acetate pH 8, 50 mM K-glutamate, 10 mM Mg-acetate, 25 C; 10 nM labeled oligo, SSB concentrations as tetramers
[4] = target: EcSSB R116D-W136D (Escherichia coli, UniProt P0AGE0 1-178, R116D;W136D); assay: as above
[5] = target: EcSSB d1G (Escherichia coli, UniProt P0AGE0 1-113+121-178, internal_change); assay: fluorescence polarization; n = 2.2; 20 mM Tris-acetate pH 8, 50 mM K-glutamate, 10 mM Mg-acetate, 25 C; 10 nM labeled oligo, SSB concentrations as tetramers

B1: dT79 (ssDNA)
DNA: TTTTTTTTTTTTTTTTTTTTTTTTTTTTTTTTTTTTTTTTTTTTTTTTTTTTTTTTTTTTTTTTTTTTTTTTTTTTTTT
B1 was tested, and the Kd [1] was less than 10 nM, the Kd [2] was less than 10 nM and the Kd [3] was 11 ± 2.5 nM. The Kd [4] was less than 10 nM and the Kd [5] was 11 ± 2.6 nM.
